Experimental data taken from patent US20240181006A1 (Merck KGaA, published 2024).
Each block holds one binder with its values, some of them ahead of it.

Columns and labels:
human ADAMTS5 [1] = biological target: T1, human ADAMTS5 (human, UniProt Q9UNA0 262-622, limits assumed); experiment: cell-based or functional assay
T1 sequence: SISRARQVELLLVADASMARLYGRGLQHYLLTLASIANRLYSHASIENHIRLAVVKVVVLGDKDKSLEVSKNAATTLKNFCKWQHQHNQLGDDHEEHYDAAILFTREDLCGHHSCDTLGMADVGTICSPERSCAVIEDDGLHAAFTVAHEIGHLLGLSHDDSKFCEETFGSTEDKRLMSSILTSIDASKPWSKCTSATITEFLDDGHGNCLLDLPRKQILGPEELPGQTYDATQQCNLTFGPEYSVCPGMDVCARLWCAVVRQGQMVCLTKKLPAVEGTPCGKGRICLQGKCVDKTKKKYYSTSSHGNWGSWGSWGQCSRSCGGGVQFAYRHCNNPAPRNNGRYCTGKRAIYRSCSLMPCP

cynomolgus ADAMTS5 [2] = biological target: T2, cynomolgus ADAMTS5 (cynomolgus, UniProt A0A2K5X879 260-620); experiment: SPR (Biacore T100), ADAMTS5 immobilized on CM5, 100 nM ISVD, Experiment 1
T2 construct: also called cyno ADAMTS5
T2 sequence: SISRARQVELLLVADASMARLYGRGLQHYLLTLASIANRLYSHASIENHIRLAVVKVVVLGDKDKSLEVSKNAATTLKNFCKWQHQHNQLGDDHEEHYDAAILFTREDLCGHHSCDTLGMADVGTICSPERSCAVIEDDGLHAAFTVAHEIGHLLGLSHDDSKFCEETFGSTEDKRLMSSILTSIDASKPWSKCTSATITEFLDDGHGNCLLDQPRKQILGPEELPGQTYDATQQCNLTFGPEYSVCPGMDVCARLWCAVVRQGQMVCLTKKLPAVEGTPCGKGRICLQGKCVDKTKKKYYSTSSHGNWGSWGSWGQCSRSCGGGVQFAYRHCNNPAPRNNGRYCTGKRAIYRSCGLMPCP
Protocol: (§1) Species cross-reactivity was initially evaluated via SPR-based off-rate analysis on a Biacore T100 instrument. Polypeptides were tested for binding to human, cynomolgus monkey (“cyno”), guinea pig, mouse, and bovine ADAMTS5. To this end, recombinant ADAMTS5 was immobilized onto a CM5 chip via amine coupling using EDC and NHS. […] Off-rate for each individual ADAMTS5 was determined by fitting a 1:1 interaction model (Langmuir model) onto the individual dissociation curves using the BIA Evaluation software. As a reference, off-rates on human ADAMTS5 were determined in each experiment.

guinea pig ADAMTS5 = guinea pig ADAMTS5 (guinea pig); experiment: as above
Protocol: as §1

human ADAMTS5 [3] = biological target: T1, human ADAMTS5; experiment: as above
Protocol: as §1

human ADAMTS5 [4] = biological target: T1, human ADAMTS5; experiment: SPR (Biacore T100), ADAMTS5 immobilized on CM5, 100 nM ISVD, Experiment 3
Protocol: as §1

mouse ADAMTS5 = biological target: T3, mouse ADAMTS5 (mouse, UniProt Q9R001 262-622, limits assumed); experiment: SPR (Biacore T100), ADAMTS5 immobilized on CM5, 100 nM ISVD, Experiment 2
T3 sequence (looked up): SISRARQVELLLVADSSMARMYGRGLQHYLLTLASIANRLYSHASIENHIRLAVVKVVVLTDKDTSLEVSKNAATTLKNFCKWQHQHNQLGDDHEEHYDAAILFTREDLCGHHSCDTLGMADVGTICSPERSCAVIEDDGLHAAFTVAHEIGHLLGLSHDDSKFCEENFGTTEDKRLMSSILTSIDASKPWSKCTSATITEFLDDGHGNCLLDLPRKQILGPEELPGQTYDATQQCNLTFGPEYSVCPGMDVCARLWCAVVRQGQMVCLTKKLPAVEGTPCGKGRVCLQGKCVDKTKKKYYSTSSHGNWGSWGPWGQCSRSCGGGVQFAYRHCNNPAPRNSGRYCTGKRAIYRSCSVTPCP
Protocol: as §1

human ADAMTS5 [5] = biological target: T1, human ADAMTS5; experiment: as above
Protocol: as §1

rat MMP13 (activated) [6] = biological target: T4, rat MMP13 (activated) (rat, UniProt P23097 99-466); experiment: cell-based or functional assay
dog MMP13 (activated) = dog MMP13 (activated) (dog, UniProt A0A8I3MWY2 129-496); experiment: cell-based or functional assay
bovine MMP13 (activated) = bovine MMP13 (activated) (bovine, UniProt O77656 104-471, limits assumed); experiment: cell-based or functional assay
[7] = biological target: cynomolgus MMP13 (activated) (cynomolgus, UniProt A0A2K5U988 104-471); experiment: cell-based or functional assay
human MMP13 (activated) [8] = biological target: T5, human MMP13 (activated) (human, UniProt P45452 104-471); experiment: cell-based or functional assay
cynomolgus ADAMTS5 [9] = biological target: T2, cynomolgus ADAMTS5; experiment: KinExA, in solution (N=1)
Protocol: (§2) All dilutions were prepared in sample buffer (PBS+0.1% BSA+0.02% NaN₃).
(§3) Percent free Nanobody construct was plotted as a function of ADAMTS5 concentration and fitted using the KinExA Pro Software v3.6.5 to determine the KD.

rat ADAMTS5 = biological target: T6, rat ADAMTS5 (rat, UniProt Q6TY19 262-928); experiment: KinExA, in solution (N=1)
T6 sequence: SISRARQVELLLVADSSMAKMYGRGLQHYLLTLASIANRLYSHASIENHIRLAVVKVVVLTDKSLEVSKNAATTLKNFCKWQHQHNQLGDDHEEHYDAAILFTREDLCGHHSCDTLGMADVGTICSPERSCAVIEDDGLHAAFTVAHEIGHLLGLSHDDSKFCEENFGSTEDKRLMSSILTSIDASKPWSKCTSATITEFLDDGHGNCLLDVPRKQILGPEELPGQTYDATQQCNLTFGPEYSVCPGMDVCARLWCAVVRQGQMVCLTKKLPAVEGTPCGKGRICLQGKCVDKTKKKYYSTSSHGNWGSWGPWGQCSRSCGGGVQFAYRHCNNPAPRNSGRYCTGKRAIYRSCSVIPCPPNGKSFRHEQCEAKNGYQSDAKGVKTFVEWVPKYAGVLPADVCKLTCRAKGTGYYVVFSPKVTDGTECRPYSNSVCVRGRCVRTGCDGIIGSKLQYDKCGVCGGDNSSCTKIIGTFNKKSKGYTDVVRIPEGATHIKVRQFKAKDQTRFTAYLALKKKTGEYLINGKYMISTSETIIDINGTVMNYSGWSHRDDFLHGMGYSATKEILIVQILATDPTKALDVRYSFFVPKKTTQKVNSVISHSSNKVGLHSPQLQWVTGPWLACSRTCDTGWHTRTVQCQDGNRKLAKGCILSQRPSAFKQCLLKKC
Protocol: as §2, §3

rat MMP13 (activated) [10] = biological target: T4, rat MMP13 (activated); experiment: cell-based or functional assay; remark: listed apart in the source
[11] = biological target: T7, cynomolgus MMP13 catalytic domain (cynomolgus, UniProt A0A2K5U988 104-274); experiment: cell-based or functional assay
[12] = biological target: T8, rat MMP13 catalytic domain (rat, UniProt P23097 99-269); experiment: cell-based or functional assay
[13] = biological target: T9, human MMP13 catalytic domain (human, UniProt P45452 104-274); experiment: cell-based or functional assay
rat MMP13 (activated) [14] = biological target: T4, rat MMP13 (activated); experiment: FRET-based kinetic enzyme assay, IC50 equals KI (average, N=2)
Protocol: (§4) All dilutions were made in assay buffer (50 mM Tris (pH 7.5), 100 mM NaCl, 10 mM CaCl₂)*2H₂O, 0.01% Tween20). […] This collagen-based substrate contains the generic MMP cleavage sequence Proline-Leucine-Glycine-Leucine (PLGL) and is labelled with a fluorochrome, Mca, and a quencher, Dpa. […] Starting within one minute after addition of the substrate, fluorescence was measured kinetically every minute for a total of 120 cycles (2 hours) using a Tecan F200 plate reader.
(§5) The obtained progress curves (fluorescent signal in function of reaction time) were analyzed using GraphPad Prism software, by fitting the linear portion of each progress curve with a straight line (Y=slope*X+Y-intercept).

[15] = biological target: T10, recombinant cynomolgus Aggrecan G1-IGD-G2 (cynomolgus); experiment: SPR (ProteOn XPR36), Aggrecan G1-IGD-G2 immobilized, 949 as analyte (average, N=2)
T10 construct: domain: G1-IGD-G2; also called Cy G1-IGD-G2
Protocol: (§6) Dissociation time was 10 min. After each sample injection the surfaces were regenerated with 10 mM glycine pH 1.5. […] This change in refractive index causes a change in the intensity and angle of reflected light which is quantitatively measured in real-time and plotted as response units (RU) versus time on a sensorgram. The kinetic constants were calculated from the obtained sensorgrams using ProteOn Manager 3.1.0 version 3.1.0.6 software and the ‘kinetic Langmuir kₐ/kd simultaneous’ model.

[16] = biological target: T11, recombinant rat Aggrecan G1-IGD-G2 (rat, UniProt P07897 20-684, limits assumed); experiment: SPR (ProteOn XPR36), Aggrecan G1-IGD-G2 immobilized, 949 as analyte (average, N=3)
T11 construct: domain: G1-IGD-G2; also called Rat G1-IGD-G2
Protocol: as §6

[17] = biological target: T12, recombinant human Aggrecan G1-IGD-G2 (human, UniProt P16112 20-676); experiment: SPR (ProteOn XPR36), Aggrecan G1-IGD-G2 immobilized, 949 as analyte (average, N=4)
T12 construct: also called Hu G1-IGD-G2
Protocol: as §6

[18] = biological target: T7, cynomolgus MMP13 catalytic domain; experiment: FRET-based kinetic enzyme assay, IC50 equals KI (average, N=3)
Protocol: as §4, §5

[19] = biological target: T8, rat MMP13 catalytic domain; experiment: as above
Protocol: as §4, §5

human MMP13 (activated) [20] = biological target: T5, human MMP13 (activated); experiment: as above
Protocol: as §4, §5

[21] = biological target: T9, human MMP13 catalytic domain; experiment: FRET-based kinetic enzyme assay, IC50 equals KI (average, N=6)
Protocol: as §4, §5

cynomolgus ADAMTS5 [22] = biological target: T2, cynomolgus ADAMTS5; experiment: cell-based or functional assay
human ADAMTS5 [23] = biological target: T1, human ADAMTS5; experiment: cell-based or functional assay; remark: listed apart in the source
human ADAMTS5 [24] = biological target: T1, human ADAMTS5; experiment: KinExA, in solution, in presence of 2 nM Aggrecan G1-IGD-G2 (average, N=3)
Protocol: as §2, §3

human ADAMTS5 [25] = biological target: T1, human ADAMTS5; experiment: KinExA, in solution, without Aggrecan G1-IGD-G2 (average, N=3)
Protocol: as §2, §3

IC50, Human AlphaLISA enzymatic assay (human ADAMTS5 [1]): 0.075 nM
IC50, Human FRET enzymatic assay (human ADAMTS5 [1]): 1.8 nM
koff (cynomolgus ADAMTS5 [2]): 2.2e-05 s⁻¹
koff (guinea pig ADAMTS5): 3.4e-05 s⁻¹
koff (human ADAMTS5 [3]): 3.3e-05 s⁻¹
koff (human ADAMTS5 [4]): 9.7e-05 s⁻¹
koff (mouse ADAMTS5): 0.00029 s⁻¹
koff (human ADAMTS5 [5]): 6.5e-05 s⁻¹
B1: anti-ADAMTS5 ISVD 02F03 (VHH)
VHH: EVQLVESGGGVVQPGGSLRLSCAASGRTVSSYAMGWFRQAPGKEREFVAGISRSAERTYYVDSLKGRFTISRDNSKNTVYLQMNSLRPEDTALYYCAADLDPNRIFSREEYAYWGQGTLVTVSS
notes: Purified monovalent ISVD; also called 2F03 ATS5

IC50, rat fluorogenic peptide assay (rat MMP13 (activated) [6]): 1.1 nM
IC50, dog fluorogenic peptide assay (dog MMP13 (activated)): 1 nM
IC50, bovine fluorogenic peptide assay (bovine MMP13 (activated)): 3.1 nM
IC50, cyno fluorogenic peptide assay [7]: 1.4 nM
IC50, human collagenolytic assay (human MMP13 (activated) [8]): 1.4 nM
IC50, human fluorogenic collagen assay (human MMP13 (activated) [8]): 8.3 nM
IC50, human fluorogenic peptide assay (human MMP13 (activated) [8]): 1.4 nM
B2: anti-MMP13 ISVD 62C02 (VHH)
VHH: EVQLVESGGGVVQPGGSLRLSCAASGFAFSAAYMSWVRQAPGKGLEWVSSISDDGSKTYYADSVKGRFTISRDNSKNTVYLQMNSLRPEDTALYYCNTGYGATTTRPGRYWGQGTLVTVSS

Kd (cynomolgus ADAMTS5 [9]): 0.0244 nM
Kd (rat ADAMTS5): 0.0252 nM
IC50 (read off the curve); FRET-based enzymatic activity assay, Vi/V0 [right panel] (rat MMP13 (activated) [10]): ~10 nM
IC50 (read off the curve); FRET-based enzymatic activity assay, Vi/V0 [left panel] [11]: ~20 nM
IC50 (read off the curve); FRET-based enzymatic activity assay, Vi/V0 [left panel] [12]: ~30 nM
IC50 (read off the curve); FRET-based enzymatic activity assay, Vi/V0 [left panel] [13]: ~30 nM
Ki (rat MMP13 (activated) [14]): 13 nM
Kd [15]: 0.016 nM
Kd [16]: 0.0166 nM
Kd [17]: 0.014 nM
Ki [18]: 20.2 nM
Ki [19]: 26.6 nM
Ki (human MMP13 (activated) [20]): 2.92 nM
Ki [21]: 27.9 nM
IC50 (read off the curve); FRET-based enzymatic activity assay, Vi/V0 (cynomolgus ADAMTS5 [22]): 3 to 4 nM
IC50 (read off the curve); FRET-based enzymatic activity assay, Vi/V0 (human ADAMTS5 [23]): ~4 nM
Kd (human ADAMTS5 [24]): 0.0266 nM
Kd (human ADAMTS5 [25]): 0.0327 nM
B3: polypeptide 949 (62C02-2F03-114F08-114F08, 35GS linkers) (other)
chain: EVQLVESGGGVVQPGGSLRLSCAASGFAFSAAYMSWVRQAPGKGLEWVSSISDDGSKTYYADSVKGRFTISRDNSKNTVYLQMNSLRPEDTALYYCNTGYGATTTRPGRYWGQGTLVTVSSGGGGSGGGGSGGGGSGGGGSGGGGSGGGGSGGGGSEVQLVESGGGVVQPGGSLRLSCAASGRTVSSYAMGWFRQAPGKEREFVAGISRSAERTYYVDSLKGRFTISRDNSKNTVYLQMNSLRPEDTALYYCAADLDPNRIFSREEYAYWGQGTLVTVSSGGGGSGGGGSGGGGSGGGGSGGGGSGGGGSGGGGSEVQLVESGGGVVQPGGSLRLSCAASGSTFIINVVRWYRRAPGKQRELVATISSGGNANYVDSVRGRFTISRDNSKNTVYLQMNSLRPEDTALYYCNVPTTHYGGVYYGPYWGQGTLVTVSSGGGGSGGGGSGGGGSGGGGSGGGGSGGGGSGGGGSEVQLVESGGGVVQPGGSLRLSCAASGSTFIINVVRWYRRAPGKQRELVATISSGGNANYVDSVRGRFTISRDNSKNTVYLQMNSLRPEDTALYYCNVPTTHYGGVYYGPYWGQGTLVTVSSA
notes: Tetravalent, trispecific VHH construct: anti-MMP13, anti-ADAMTS5 and two anti-Aggrecan units; also called C010100949; ALX-1011
